The text below walks through data of the supplement of paper PMC5998384.

Data set [1] deals with HeLa Kyoto. Description: thermal stability score vs G1/S (z-score of summed log2 fold changes over temperatures); higher = more thermally stable than in G1/S.
Data set [2] concerns HeLa Kyoto. Description: melting temperature (median over replicates), in situ; higher = more thermally stable.
Where [3] appears, read: cell cycle stage: early G1 (4.5 h after nocodazole release).
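Wherever melting temperature (median over replicates), in situ is given: HeLa Kyoto cells synchronized by double thymidine or nocodazole block, proteins quantified by TMT10plex mass spectrometry, three independent biological replicates.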
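Wherever thermal stability score vs G1/S (z-score of summed log2 fold changes over temperatures) is given: synchronized HeLa Kyoto cells, proteins quantified by TMT10plex mass spectrometry, three biological replicates, mitosis taken 0.5 h after nocodazole release, G1/S directly after double thymidine block.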

Take “MAVAAAAAAGPVFWRRLLGLLPGRPGLAALLGRLSDRLGRNRDRQRRRSPWLLLAPLLSPAVPQVTSPPCCLCPEGVHRFQWIRNLVPEFGVSSSHVRVLSSPAEFFELMKGQIRVAKRRVVMASLYLGTGPLEQELVDCLESTLEKSLQAKFPSNLKVSILLDFTRGSRGRKNSRTMLLPLLRRFPEQVRVSLFHTPHLRGLLRLLIPERFNETIGLQHIKVYLFDNSVILSGANLSDSYFTNRQDRYVFLQDCAEIADFFTELVDAVGDVSLQLQGDDTVQVVDGMVHPYKGDRAEYCKAANKRVMDVINSARTRQQMLHAQTFHSNSLLTQEDAAAAGDRRPAPDTWIYPLIQMKPFEIQIDEIVTETLLTEAERGAKVYLTTGYFNLTQAYMDLVLGTRAEYQILLASPEVNGFFGAKGVAGAIPAAYVHIERQFFSEVCSLGQQERVQLQEYWRRGWTFHAKGLWLYLAGSSLPCLTLIGSPNFGYRSVHRDLEAQIAIVTENQALQQQLHQEQEQLYLRSGVVSSATFEQPSRQVKLWVKMVTPLIKNFF [PGS1]”: the thermal stability score in the data set on HeLa Kyoto [1] (setting [3]) was 0.0742; in the data set on HeLa Kyoto [1] (cell cycle stage: mitosis), -0.577. For the same sequence, the melting temperature with HeLa Kyoto [2] (cell cycle stage: G1/S) and in the data set with HeLa Kyoto [2] (cell cycle stage: mitosis) was 53.2 °C throughout.
Consider “MSRLLPLLRSRTARSLRPGPAAAAAPRPPSWCCCGRGLLALAPPGGLPGGPRRLGTHPKKEPMEALNTAQGARDFIYSLHSTERSCLLKELHRFESIAIAQEKLEAPPPTPGQLRYVFIHNAIPFIGFGFLDNAIMIVAGTHIEMSIGIILGISTMAAAALGNLVSDLAGLGLAGYVEALASRLGLSIPDLTPKQVDMWQTRLSTHLGKAVGVTIGCILGMFPLIFFGGGEEDEKLETKS [TMEM65]”, for which the thermal stability score with HeLa Kyoto [1] (setting [3]) was found to be 0.563; in the data set on HeLa Kyoto [1] (cell cycle stage: mitosis) it was 0.332. In addition, the melting temperature stood at 55.5 °C in the data set on HeLa Kyoto [2] (cell cycle stage: G1/S) and 55.9 °C in the data set with HeLa Kyoto [2] (cell cycle stage: mitosis).
The corresponding values for “MSEKSVEAAAELSAKDLKEKKEKVEEKASRKERKKEVVEEEENGAEEEEEETAEDGEEEDEGEEEDEEEEEEDDEGPALKRAAEEEDEADPKRQKTENGASA [PTMS]” are -1.16, -2.62, 55.5 °C and 51.9 °C.
As to “MAMWNRPCQRLPQQPLVAEPTAEGEPHLPTGRELTEANRFAYAALCGISLSQLFPEPEHSSFCTEFMAGLVQWLELSEAVLPTMTAFASGLGGEGADVFVQILLKDPILKDDPTVITQDLLSFSLKDGHYDARARVLVCHMTSLLQVPLEELDVLEEMFLESLKEIKEEESEMAEASRKKKENRRKWKRYLLIGLATVGGGTVIGVTGGLAAPLVAAGAATIIGSAGAAALGSAAGIAIMTSLFGAAGAGLTGYKMKKRVGAIEEFTFLPLTEGRQLHITIAVTGWLASGKYRTFSAPWAALAHSREQYCLAWEAKYLMELGNALETILSGLANMVAQEALKYTVLSGIVAALTWPASLLSVANVIDNPWGVCLHRSAEVGKHLAHILLSRQQGRRPVTLIGFSLGARVIYFCLQEMAQEKDCQGIIEDVILLGAPVEGEAKHWEPFRKVVSGRIINGYCRGDWLLSFVYRTSSVQLRVAGLQPVLLQDRRVENVDLTSVVSGHLDYAKQMDAILKAVGIRTKPGWDEKGLLLAPGCLPSEEPRQAAAAASSGETPHQVGQTQGPISGDTSKLAMSTDPSQAQVPVGLDQSEGASLPAAASPERPPICSHGMDPNPLGCPDCACKTQGPSTGLD [TMCO4]”, the thermal stability score in the data set on HeLa Kyoto [1] (setting [3]) was -0.364; in the data set with HeLa Kyoto [1] (cell cycle stage: mitosis), 0.512. Besides, the melting temperature in the data set with HeLa Kyoto [2] (cell cycle stage: mitosis) came out at 53.7 °C.
For the sequence “MTSALENYINRTVAVITSDGRMIVGTLKGFDQTINLILDESHERVFSSSQGVEQVVLGLYIVRGDNVAVIGEIDEETDSALDLGNIRAEPLNSVAH [LSM8]”, the thermal stability score in the data set with HeLa Kyoto [1] (setting [3]) is -1.46; in the data set on HeLa Kyoto [1] (cell cycle stage: mitosis), -3.54. Further, the melting temperature amounted to 57.1 °C in the data set with HeLa Kyoto [2] (cell cycle stage: G1/S) and 57.5 °C with HeLa Kyoto [2] (cell cycle stage: mitosis).
In the data set with HeLa Kyoto [2] (cell cycle stage: G1/S), “MLLATLLLLLLGGALAHPDRIIFPNHACEDPPAVLLEVQGTLQRPLVRDSRTSPANCTWLILGSKEQTVTIRFQKLHLACGSERLTLRSPLQPLISLCEAPPSPLQLPGGNVTITYSYAGARAPMGQGFLLSYSQDWLMCLQEEFQCLNHRCVSAVQRCDGVDACGDGSDEAGCSSDPFPGLTPRPVPSLPCNVTLEDFYGVFSSPGYTHLASVSHPQSCHWLLDPHDGRRLAVRFTALDLGFGDAVHVYDGPGPPESSRLLRSLTHFSNGKAVTVETLSGQAVVSYHTVAWSNGRGFNATYHVRGYCLPWDRPCGLGSGLGAGEGLGERCYSEAQRCDGSWDCADGTDEEDCPGCPPGHFPCGAAGTSGATACYLPADRCNYQTFCADGADERRCRHCQPGNFRCRDEKCVYETWVCDGQPDCADGSDEWDCSYVLPRKVITAAVIGSLVCGLLLVIALGCTCKLYAIRTQEYSIFAPLSRMEAEIVQQQAPPSYGQLIAQGAIPPVEDFPTENPNDNSVLGNLRSLLQILRQDMTPGGGPGARRRQRGRLMRRLVRRLRRWGLLPRTNTPARASEARSQVTPSAAPLEALDGGTGPAREGGAVGGQDGEQAPPLPIKAPLPSASTSPAPTTVPEAPGPLPSLPLEPSLLSGVVQALRGRLLPSLGPPGPTRSPPGPHTAVLALEDEDDVLLVPLAEPGVWVAEAEDEPLLT [LRP10]” yielded a melting temperature of 54.7 °C.
As to “MALNGAEVDDFSWEPPTEAETKVLQARRERQDRISRLMGDYLLRGYRMLGETCADCGTILLQDKQRKIYCVACQELDSDVDKDNPALNAQAALSQAREHQLASASELPLGSRPAPQPPVPRPEHCEGAAAGLKAAQGPPAPAVPPNTDVMACTQTALLQKLTWASAELGSSTSLETSIQLCGLIRACAEALRSLQQLQH [SSSCA1]”, the values for the melting temperature with HeLa Kyoto [2] (cell cycle stage: G1/S) and in the data set with HeLa Kyoto [2] (cell cycle stage: mitosis) were 53.3 °C and 53.5 °C, respectively.
For “MAIFRQLSLGAKATLAAVTVFVSMIASRSYLAESLELRAWRWLLRLQLALFVNSLLLIGSLYIWRSTVSNLCHSPAAESTCFQLWKVVVLAFLALAHSSFFTMFFLVAEEPYLFSLAAYSCLGAYIIMLFFLFILSGMEQAYQLLAWRSGRVVGSLEKTRKLVLRPALAVGVTAVLSVAGILNAAQPPAVKTVEVPIHQLPASMNNLKIVLLSDIHLGPTVGRTKMEMFVRMVNVLEPDITVIVGDLSDSEASVLRTAVAPLGQLHSHLGAYFVTGNHEYYTSDVSNWFALLESLHVQPLHNENVKISATRAQRGGGGSGSGSEDEDWICLAGVDDIEADILHYSGHGMDLDKALEGCSPDHTIILLAHQPLAAKRALQARPDINLILSGHTHAGQIFPLNVAAYLLNPFFAGLYQVAQATFVYVSPGTAYYGIPMRLGSRAEITELILQRSP [TMPPE]” the same measures were 53.6 °C and 53.6 °C.
In the data set on HeLa Kyoto [2] (cell cycle stage: G1/S), “MGRLLRAARLPPLLSPLLLLLVGGAFLGACVAGSDEPGPEGLTSTSLLDLLLPTGLEPLDSEEPSETMGLGAGLGAPGSGFPSEENEESRILQPPQYFWEEEEELNDSSLDLGPTADYVFPDLTEKAGSIEDTSQAQELPNLPSPLPKMNLVEPPWHMPPREEEEEEEEEEEREKEEVEKQEEEEEEELLPVNGSQEEAKPQVRDFSLTSSSQTPGATKSRHEDSGDQASSGVEVESSMGPSLLLPSVTPTTVTPGDQDSTSQEAEATVLPAAGLGVEFEAPQEASEEATAGAAGLSGQHEEVPALPSFPQTTAPSGAEHPDEDPLGSRTSASSPLAPGDMELTPSSATLGQEDLNQQLLEGQAAEAQSRIPWDSTQVICKDWSNLAGKNYIILNMTENIDCEVFRQHRGPQLLALVEEVLPRHGSGHHGAWHISLSKPSEKEQHLLMTLVGEQGVVPTQDVLSMLGDIRRSLEEIGIQNYSTTSSCQARASQVRSDYGTLFVVLVVIGAICIIIIALGLLYNCWQRRLPKLKHVSHGEELRFVENGCHDNPTLDVASDSQSEMQEKHPSLNGGGALNGPGSWGALMGGKRDPEDSDVFEEDTHL [PODXL2]” displayed a melting temperature of 54 °C.
Take “MTVKTEAAKGTLTYSRMRGMVAILIAFMKQRRMGLNDFIQKIANNSYACKHPEVQSILKISQPQEPELMNANPSPPPSPSQQINLGPSSNPHAKPSDFHFLKVIGKGSFGKVLLARHKAEEVFYAVKVLQKKAILKKKEEKHIMSERNVLLKNVKHPFLVGLHFSFQTADKLYFVLDYINGGELFYHLQRERCFLEPRARFYAAEIASALGYLHSLNIVYRDLKPENILLDSQGHIVLTDFGLCKENIEHNSTTSTFCGTPEYLAPEVLHKQPYDRTVDWWCLGAVLYEMLYGLPPFYSRNTAEMYDNILNKPLQLKPNITNSARHLLEGLLQKDRTKRLGAKDDFMEIKSHVFFSLINWDDLINKKITPPFNPNVSGPNDLRHFDPEFTEEPVPNSIGKSPDSVLVTASVKEAAEAFLGFSYAPPTDSFL [SGK1]”: the melting temperature in the data set on HeLa Kyoto [2] (cell cycle stage: mitosis) was 48.3 °C.
